Results as given in the RNAGym collection of RNA variant scans (doi:10.7554/elife.80360).

B1: CPEB3 Ribozyme (parent)
chain: GGGGGCCACAGCAGAAGCGUUCACGUCGCGGCCCCUGUCAGAUUCUGGUGAAUCUGCGAAUUCUGCUGU

Variants of: B1
Assay: self-cleavage, relative activity (ratio to wild type); higher = more cleavage; co-transcriptional
U21A G68A gave a self-cleavage of 1.02.
For U20C G68U, the self-cleavage was 0.195.
In the case of U20C G68C, the self-cleavage is reported as 0.211.
With U20C G28U the self-cleavage was 0.208.
For U20C C54A, the self-cleavage was 0.156.
U21G C24G gave a self-cleavage of 0.0852.
C22A U55G gave a self-cleavage of 0.162.
U21A C66U showed a self-cleavage of 0.985.
U20A C63U gave a self-cleavage of 0.16.
In the case of U20C C66G, the self-cleavage is reported as 0.179.
C22A C24A showed a self-cleavage of 0.0966.
C22A G68A gave a self-cleavage of 0.247.
C22A G68U showed a self-cleavage of 0.264.
For C22A G68C, the self-cleavage was 0.27.
In the case of U20G A51U, the self-cleavage is reported as 0.219.
Variant U20G A51C has a self-cleavage of 0.27.
Work on C22A A42U yielded a self-cleavage of 0.181.
C22A G65C gave a self-cleavage of 0.147.
C22A C66A gave a self-cleavage of 0.232.
For C22A U62C, the self-cleavage was 0.17.
C22A U62A showed a self-cleavage of 0.148.
For U20G C29U, the self-cleavage was 0.137.
U21C U67G showed a self-cleavage of 0.978.
U21A G31C gave a self-cleavage of 0.221.
For U20C U44G, the self-cleavage was 0.149.
For U20C U44C, the self-cleavage was 0.123.
For U20A U21G, the self-cleavage was 0.2.
With U20A U21A the self-cleavage was 0.219.
U20C A52G gave a self-cleavage of 0.161.
U21C C27G gave a self-cleavage of 0.209.
Work on U20G U46G yielded a self-cleavage of 0.189.
U21G G25A gave a self-cleavage of 0.284.
For U20G C22U, the self-cleavage was 0.141.
Variant U21C C66A has a self-cleavage of 0.611.
Variant C22G C34U has a self-cleavage of 0.203.
C22A C39A showed a self-cleavage of 0.161.
With C22A C39G the self-cleavage was 0.223.
With U21C A52G the self-cleavage was 0.887.
Variant U21C A52U has a self-cleavage of 0.93.
For U20G U62C, the self-cleavage was 0.244.
With U21G C34U the self-cleavage was 0.53.
U21G C34G showed a self-cleavage of 0.193.
In the case of U21A C32U, the self-cleavage is reported as 0.993.
U21A C32A gave a self-cleavage of 0.808.
U21C C45G gave a self-cleavage of 0.864.
In the case of U21C C33A, the self-cleavage is reported as 0.516.
Variant U21C C33G has a self-cleavage of 0.217.
With U20G G37U the self-cleavage was 0.182.
Work on U20A C39G yielded a self-cleavage of 0.251.
Variant U20G G28U has a self-cleavage of 0.161.
U21C G37A gave a self-cleavage of 0.261.
U21C G37U showed a self-cleavage of 0.264.
In the case of U21A G37A, the self-cleavage is reported as 0.283.
With U21A G37C the self-cleavage was 0.217.
For C22A G50A, the self-cleavage was 0.24.
C22A A59U gave a self-cleavage of 0.198.
Work on C22A A59G yielded a self-cleavage of 0.232.
In the case of C22A A59C, the self-cleavage is reported as 0.192.
Variant U21C U62A has a self-cleavage of 0.661.
Variant U20G U21C has a self-cleavage of 0.166.
U21C C24A showed a self-cleavage of 0.376.
C22A G25C showed a self-cleavage of 0.255.
C22G C45U showed a self-cleavage of 0.158.
U20A C45G gave a self-cleavage of 0.149.
For U20A C45A, the self-cleavage was 0.142.
Variant U21A C39A has a self-cleavage of 0.911.
Work on U21A G65U yielded a self-cleavage of 0.795.
Variant U21A G65A has a self-cleavage of 0.862.
For U20A A42U, the self-cleavage was 0.133.
With U20A A40C the self-cleavage was 0.188.
In the case of U20A A40U, the self-cleavage is reported as 0.0825.
U20C U69G showed a self-cleavage of 0.394.
U21C G31C gave a self-cleavage of 0.16.
Variant U21C G31A has a self-cleavage of 0.569.
Variant C22A G56U has a self-cleavage of 0.151.
In the case of U20G G65C, the self-cleavage is reported as 0.166.
With U20A C24G the self-cleavage was 0.0902.
Work on U20C G56C yielded a self-cleavage of 0.203.
U20C G56U gave a self-cleavage of 0.127.
In the case of U21G G65A, the self-cleavage is reported as 0.255.
For C22G A60G, the self-cleavage was 0.265.
With U20C G50A the self-cleavage was 0.174.
With U20C G50C the self-cleavage was 0.102.
For U21C C35A, the self-cleavage was 0.229.
With U20A G47U the self-cleavage was 0.179.
Variant U20A G47C has a self-cleavage of 0.261.
In the case of U20G U69A, the self-cleavage is reported as 0.264.
U21A G58U gave a self-cleavage of 0.996.
In the case of U21A G58C, the self-cleavage is reported as 0.938.
Work on U21C U46C yielded a self-cleavage of 0.89.
U21A C24U showed a self-cleavage of 0.69.
Variant U20G G30U has a self-cleavage of 0.191.
With U20G G30C the self-cleavage was 0.212.
Variant U20A U62C has a self-cleavage of 0.148.
U20A U62G gave a self-cleavage of 0.0797.
In the case of C22G G28A, the self-cleavage is reported as 0.16.
Work on U20C U55G yielded a self-cleavage of 0.203.
U20C U55C showed a self-cleavage of 0.139.
Work on U21A U61C yielded a self-cleavage of 0.728.
In the case of U20G C66G, the self-cleavage is reported as 0.15.
Variant U20G C66A has a self-cleavage of 0.23.
With U21A U62C the self-cleavage was 0.844.
U20G U67A gave a self-cleavage of 0.223.
Work on U20G U67C yielded a self-cleavage of 0.237.
C22A G47C gave a self-cleavage of 0.157.
With U21C G56C the self-cleavage was 0.426.
Work on U20G U36G yielded a self-cleavage of 0.16.
Work on C22A C45U yielded a self-cleavage of 0.158.
C22A C45A showed a self-cleavage of 0.155.
In the case of U21G U26C, the self-cleavage is reported as 0.308.
Work on U21G G30A yielded a self-cleavage of 0.221.
U21G G30C gave a self-cleavage of 0.232.
With U21G G30U the self-cleavage was 0.214.
For U20A U49C, the self-cleavage was 0.275.
U20A U49G showed a self-cleavage of 0.199.
U20C U43A gave a self-cleavage of 0.227.
In the case of U20C U43G, the self-cleavage is reported as 0.241.
In the case of C22G C66U, the self-cleavage is reported as 0.182.
Work on U20A U69A yielded a self-cleavage of 0.181.
Work on U21G C45U yielded a self-cleavage of 0.593.
U21G C45G gave a self-cleavage of 0.567.
For U21G C45A, the self-cleavage was 0.643.
Work on U21A C27G yielded a self-cleavage of 0.222.
In the case of C22G C24G, the self-cleavage is reported as 0.0697.
With C22G C24U the self-cleavage was 0.182.
U20A A59U gave a self-cleavage of 0.106.
Work on C22A U53C yielded a self-cleavage of 0.239.
Work on C22A C34U yielded a self-cleavage of 0.219.
With C22A C34G the self-cleavage was 0.175.
Work on U20C C32U yielded a self-cleavage of 0.248.
Variant U20C C32G has a self-cleavage of 0.218.
In the case of U20A U67A, the self-cleavage is reported as 0.12.
Variant C22G G37C has a self-cleavage of 0.956.
C22G G37A gave a self-cleavage of 0.174.
U21G G68U gave a self-cleavage of 0.701.
In the case of U21G G68C, the self-cleavage is reported as 0.783.
With C22A C63U the self-cleavage was 0.194.
Work on U21C G48A yielded a self-cleavage of 0.933.
With C22A U43C the self-cleavage was 0.167.
In the case of C22G C33G, the self-cleavage is reported as 0.216.
U21G G28C gave a self-cleavage of 0.162.
With U21G G28A the self-cleavage was 0.245.
In the case of U21G A52C, the self-cleavage is reported as 0.459.
In the case of U21G G47U, the self-cleavage is reported as 0.638.
In the case of U21G G47C, the self-cleavage is reported as 0.818.
Work on U21G G47A yielded a self-cleavage of 0.715.
For U21A U67G, the self-cleavage was 1.02.
In the case of U20G G31U, the self-cleavage is reported as 0.128.
Work on C22G G48C yielded a self-cleavage of 0.212.
Work on U21G U38C yielded a self-cleavage of 0.932.
U20C G65C showed a self-cleavage of 0.126.
For U20C G65U, the self-cleavage was 0.18.
Work on U21G C57G yielded a self-cleavage of 0.235.
Work on U21G U61A yielded a self-cleavage of 0.319.
In the case of U20A U36A, the self-cleavage is reported as 0.158.
U21G C27A gave a self-cleavage of 0.196.
Variant U21G C27U has a self-cleavage of 0.112.
In the case of U20A A60U, the self-cleavage is reported as 0.117.
With U20G C57G the self-cleavage was 0.181.
For U20G C57A, the self-cleavage was 0.124.
U21A C35G gave a self-cleavage of 0.198.
U20C A23G showed a self-cleavage of 0.238.
Variant U21G U53A has a self-cleavage of 0.473.
C22G C27G gave a self-cleavage of 0.16.
U21A C34G gave a self-cleavage of 0.606.
U21G A40C showed a self-cleavage of 0.222.
Work on U21C C29A yielded a self-cleavage of 0.274.
